Reference: the nanobody polyreactivity screen of Harvey et al. (2022)

Assay: yeast display, Sf9 membrane polyspecificity reagent, FACS + sequencing; frameworks hold sequencing errors
Outline: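 Synthetic nanobody libraries on Saccharomyces cerevisiae BJ5465 were galactose-induced for 36–48 hours, stained 1 hour at 4 °C with 10% biotinylated, detergent-solubilized Sf9 membrane reagent and enriched on streptavidin microbeads. FACS then separated cells into low and high (top ~1%) gates by anti-HA (expression) and streptavidin (reagent binding) fluorescence. Genes were colony-PCR amplified, MiSeq 2 × 250 sequenced and CDR-length filtered. A clone's polyreactivity label is that of its gate of origin.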

| Sequence | polyreactivity (PSR sort gate) |
| --- | --- |
| QVQLVESGGGLVQAGGSLRLSCAASGSIFYQNAMGWYRQAPGKERELVAAITSDGSTYYADSVKGRFTISRDNAKNTVYLQMNSLKPEDNAVYYCAAEYYVHRYDYWGQGTQVTVSS | low polyreactivity |
| QVQLVESGGGLVQAGGSLRISCAASGFIFFPYTRGCSRQAPGKLMELVAAITNGGSTSYADSVKGRFTISRDNAKKTGYLQMNSLKPEDTAVYSCAAVLGRNLLHTYYYWGQGTQVTGSS | low polyreactivity |
| QVQLVESGGGLVQAGGSLRLSCAASGFIFTGNAMGWYRQAPGKERELVAAITGRGSTYYADSVKGRFTISRDNAKNTVYLQMNSLKPEDTAVYYCAAKRWWQYYWGQGTQVTVSS | high polyreactivity |
| QVQLQEIGGGLVQAGGSLRLSCAASGYISLAKTIGLSRQAPGKEREFVASIALGSSTYYTDSVKGSFTISRDNAKTTVYLQMNRLKPEDTAVYYCAARVGASYAHDYGGQGTQVTVSS | low polyreactivity |
| QVQHVESGGGLVQAVGSLRLSSAASGSTIRYYAMGWYRQAPGKERELVASISSSGGSTFYADSVKGRFTISRDNAKNSVYLQMNSLKPEDTAVYYCARRYHYNMDYWGQGTQVTVSS | high polyreactivity |
| QVQLVESGGGLVQAGGSLRLSCAASGSTFFYNAMGWYRQAPGKERELVAAISRGGGITYYADSVKGRFTISRDNAKNTVYLQMNSLKPEDTAVYYCQYLSRGLNTYRSSQGDDDYWGQGTQVTVSS | high polyreactivity |
| QVQLVESGGGLVQAGGTLRLSCAASGSTFDVYAMGWYRQSPVKESELVADINYGDASTYYADSVKGRFTISRDNAKNTVYLQMISLNPEDTSVYYCAAFVYVLNYLSDGGSVYREHDYWGQGTKVTVSS | low polyreactivity |
| QVQLVESGGGLVQAGGSLRLSCAASGSIFVFYAMGWYRQAPGKERELVAAINDGGSTHYADSVKGRFTISRDNAKNTVYLQMNSLKPEDTAVYYCAAEYVWYRYPDYWGAYDYWGQGTQVTVSS | low polyreactivity |
| QVQLVESGGGLVQAGGSLRLSCAASGSTFSWYAMGWYRQAPGKERELVAAISYSGGTYYADSVKGRFTISRDNEKNTVYLQMNSLKPEYNAVYYCAALRTRYGYDYWGQGTQVTLSS | high polyreactivity |
| QVQLVESGGGLVQAGGSLRLSCAASGRTFGTNAMVWYRQAPGKERELVAAITWRGGSTSYADSVKGRFTISRDNAKNTVYLQMNSLKPEDSAVYYCAVRLRYPGNTFYYWGQGTQVTVSS | high polyreactivity |
| QVQLQESGGGLVQAGGSLRLSCAARGNNSSYYRMGWYRQAPGQEREFVATIAVGGTTNYADSVKGRFTISRDNEKTTLYLQRNSLKPEDTAVCFCAANSTQYTWFDYWGQGTQVPVSS | low polyreactivity |
| QVQLVESGGGLGQAGGSLRLSCAASGRIFAGYAMGWYRQAPGKERELVAAISWSGSSTHYADSVKGRFTISRDNAKNTVYFQMNSLKPEDTAVYYCAADLKDTRLFPWFFEYDYWGQGTQVTVSS | low polyreactivity |
| QVQLVESGGGLVQAGGSLRLSCAASGSIFSRYTMAWYRQAPGKERELVARINSSGTSTYYADSVKGRFTISRDNAKNTVFLQMNSLKPEDTAVYYCARTSRHVRYDYWGQGTQVTVSS | low polyreactivity |
| QVQLVESGGGLVQAGGSLRLSCASSGFAYSYYAMGWYRQAPGKEREFVASIDWSGGSTYYADSVKGRITISRDNAMNTVYLQMNSLKPEATAVYYCAAELDYFPGYDSWGQGTQVTVSS | low polyreactivity |
| QVQLVESGGGLVQAGGSLRLSCAASGRTFVWNAMGWYRQAPGKERELVAAIDWSGGSTYYADSVKGRFTISRDNAKNTVYLQMNSLKPEDTAGYYCAKEYWYRALWYNYWGQGTQVTVSS | high polyreactivity |
| QVQLVESCGGLVQAGGSLRLSCAASGSTFRTYAMGWYRQAPGKERELVASIDSTGSTNYADSVKGRFTISSDNAKNSVYLQMNSLKPEDTAVYDCAAETYSYPPFYAYDYWGQGTQVTVSS | low polyreactivity |
| QVQLEESGGGLVQAGGSLRLSCAASGRTFTVYAMGWYRQAPGKERELVAGIRRGDSTYYADSVKGRFTISRDNAKNTVYLQMNSLKPEDTAVYYCAARPAGYGHYKYYYWGQGTQVTVSS | high polyreactivity |
| QVQLVESGGGLVQAGGRLRLSCDASGRIFTYNAMGWYRQAPGKERELVGAITFSGGGTYYADSVKGRFTISRDNAKNTVYLVMTSLKPEDTAVYYCNQVSFGYSTYGYWGQGTQVTVSS | low polyreactivity |
| QVQLVESGGGLVQAGGSLRLSCAASGSIFGDNAMGWYIQAPGKERELVAAITSSGVRTYYADSVKGRFTISRDNAKNTVYLQMNSLKPEDTAVYYCNADRFRRIRWYAITRSDYWGQGTQVTVSS | high polyreactivity |
| QDQLVESGGGLVQAGGSLRLSSAASGRIFKWNAMGWYRPAPGTERQLVAAIRWSGTSTYADSVKGRFTISRDNAKNTVYLHMNSLKPEDTAVYYCAAQDVSAPGWWLHYWGQGTQVTVSS | low polyreactivity |
| QVQLVESGGGLVQAGGSLRLSCAASGRTFGYNAMGWYSQAPGKERELVAAISRSGGRTYYADSVKGRFTISRDNAKNTVYLQMNSLKPEDTAVYYCAAESYHRGYDYWGQGTQVTLSS | high polyreactivity |
| QVQLVESGGGLVQAGGSLRLSCAASGSIFGRYGAMGWYRQAPGKDRELVAAIRTSGVSTYYADSVKGRYTISRDNAKKTVYLQMNSLKPEDTAVYYCAKGYTSYNLGKYGYWGQGTQVTVTS | high polyreactivity |

| Sequence | polyreactivity (PSR sort gate) |
| --- | --- |
| KVQLVESGGGLFQAVGSLRLSCADSGRTLGGYAMGWYRQAPGKDRELVAAITSDTGTNYADSVKGRFTISRDNAKNTVYLQMNSLKPEDTAVYYCAAERFYEYDYWGQGTQVTVSS | low polyreactivity |
| QVQLVESGGGLVQAGGSLRLSCAASGNIFKGYAMGWYRQAPGKERALVAAISKSGGSTYDADSVKGRFTISRDNAKNTVYLQMNSLKPDDTAVYYCNARRKYGGGQTINGYDYWGQGTQVTVSS | high polyreactivity |
| QVQLVESGGCLVQAGGSLRLSCAASGIIFYQNSMGWYRQAPGKERELVAAISRSGGTTYYADSVKGRFTISRDNAKNTVYLLMNSVNPEVTAVYYCAAVGTGSGYYYWGQGTQVTVSS | high polyreactivity |
| QVQLVESVRGLVQAGGSLPLSCAASGIIISSYAIGWYRQAPGKESEMVADIRSGGSTNYADSVKGRFTISRDNAKNNVYLQMNSLKPEDTAVYYCIADTFQWWDIADVYVIVKYGYWGQGTQVTVSS | low polyreactivity |
| QVQLVESGGGLVQAGGSLRLSCAASGSIFFGNVMGWYRQAPGKERELVAVISWSGGTTYYADSVKGRFTISRDNAKNTVYLQMNSLKAEYTAVYYCNARYLRRGDYWGQGTQVTVSS | low polyreactivity |
| QVQLVESGGGLVQAGGSLRLSCAASGSIFYGNAMGWYRQAPGNERESVAGITGSGSRTYYADSVKGRFTISRDNAKITVYLQMNSLKAEDTAVYYCARLTRTSRGLYDYWGQGTQVTVSS | high polyreactivity |
| QVQLVESGGGLVQAGGSLRLSCAASGITFYLYAMGWYRQAPGKERELVAAISSSGGRTYYADSVKGRFTISRDNAKNTVYLQMNSLKPEDTAVYYCAARRYGVPPTYDYWGQGTQVTVSS | high polyreactivity |
| QVQLVETGGALVQAGGSLRLSCAASGFTFIDYTMGCYSQAPGKERELVARITDTGSTNYADSVKVRFTISRDNAKNTVYLQMNSLKQEDTAVYYCNKDDRNDRTIPGYDPEYDYWGQGTQVTVSS | low polyreactivity |
| QVQLVESGGGLVHAGGSLRLSCAAYGFIFYDYVMGWYRQAPGKERELVAAITGSGGGTYYADSVKGRFTISRDNAKNTVYLQMNSLKPDATAVYYCAADFISVYGYEYYYWGQVTQVTVSS | high polyreactivity |
| QVQLVESGGGLVQAGGSLRLSCAASGFTFYRYTMGRYRQAPGKERELVAAITWSGGNTYYADSVKGRFTISRDNAKNTVYLQMNSLKPEDNAVYYCAAYKPYSKYNYWGQGTQVTVSS | high polyreactivity |
| QVQLVESGGGLFQEGGSLRLSCAASGRIFYGYGMGWYRQAPGKERELVAAITWSGSRTYYADSVKGRFTISRDNAKNTVYVQMNSLKPEDTAVYYCAARIPSDGYYYWGQGTQVTVSS | high polyreactivity |
| QVQLVESGGGLVQAGGSLRLSCAASGSNFTAYAMGWYRQAPGKERELVAAITKSSVTYYADSVKGRFTISRDNAKNTVYLQMNSVKPEDTAVYYCAGYSPRPSDLYSPIAYYYWGQGTLVTVSS | low polyreactivity |
| QVQLVDSGGGLVQAGGSLRLSCAASGSTFYYYAMGWYRQAPGKERELVAAITYSGGSTTYADSVKGRFTFSRDNAKNTVYLQMNSLKPEDTAVYYCAAYVYRYHRVAYEYWGQGTQVTVSS | high polyreactivity |
| QVHLVESGGGLVQAGGSLRLSCAASGGIFYPNAMGWYRQAPGKERELVAAISSGGGSTYYADSVKGRFTISRDNAKNTVYLQMNSLKPEDTAVYYCAASAYSLKSDVEYDYWGQGTLVTVSS | low polyreactivity |
| QVQLVESGGGLVQAGGSLRLSCAASGSIYPYYAKGWNRPAPRKERELFAAIDSGGSTNYADSLKGRFSITRDNAKNRVYLQLNSLIPEDTAVFYCADDVYWFAYVWSKYVFWGQGTHVTVSS | low polyreactivity |
| QVQLVDSGGGLVQAGGSLRLSCAASGSIILVNAMGWYRQAPGKEREFVAAISTSSGSTYYADSVKGRFTISRDNAKNTVYLQMNSLKPEDTAVYYCAADEVYSRGIWPVEDDYWGQGSQVTVSS | low polyreactivity |
| QVQLVESGGGLVQAGGSLRLSCAASGFIYTRNAMGWDRQAPGQERELVAAITSSGGSTYYADTVKGRFTISRDNAKNTVYLQMNSLKREDTAVYYCARGKSVGFNYWGQGTQVTVSS | high polyreactivity |
| QVQLVESGGGLVQAGGSLRLSCAASGRTFVFNAMGWYRQAPGKERELVAAISRSGGSTYYADSVKGRFTISRDNAKNTVYLQMNSLKPEDTAVYYCAADKYYLFALYEYGYWGQGTQVTVSS | high polyreactivity |
| QVQLVESGGGLVQAGGSLRLSCAASGSIFYYNAMGLYIQAPGKERELVAAITSSGGSTYYADSVKGRFTISRDNAKNTVYLQMNSLNPEDTAVYYCNNDTLVYGYVQDSEYWGQGTQVTVSS | low polyreactivity |
| QVQLVESGGGLVQAGGSLRLSCAAYGSIFFGNVMGWYRQAPGKARELVAVISWSGGTTYYADSVKGRFTISRDNAKNTVYLQMNSLKPEDTAVYYCNARYLRRGDYWGQGTQVTVSS | low polyreactivity |
| QVQLVESGGGLVQAGGSLRLSCAASGITFYYYAMGWYRQAPGKERELVAAISRSGGRTYYADSVKGRFTISRDNAKNTVYLQMNSLNPEDTAVYYCAAVRYQGGDSSIEYDYWGQGTQVTLSS | high polyreactivity |
